This data set in a line: melting temperature; melt of duplexes. The settings on record: sodium 0.0675 M; strand 1 µM.
For orientation: Tm means the temperature at which the thermal transition is half complete. Consider “CGACGTGCCGAATGTGCTG+CAGCACATGGCGCACGTCG ((((((((...((((((((+))))))))...))))))))”, for which the Tm was 51.5 °C.

For the substance “CGACGTGCCGTATGTGCTG+CAGCACATCCAGCACGTCG ((((((((.(.((((((((+)))))))).).))))))))”, the Tm was 49.8 °C.

As for “CGACGTGCCTGATGTGCTG+CAGCACATAGTGCACGTCG ((((((((...((((((((+))))))))...))))))))”, the Tm is 46.5 °C.

Take “CGACGTGCGTCATGTGCTG+CAGCACATTGGGCACGTCG ((((((((...((((((((+))))))))...))))))))”: the melting temperature (Tm) is 49.9 °C.

In the case of “CGACGTGCCAGATGTGCTG+CAGCACATTTGGCACGTCG ((((((((((.((((((((+)))))))).))))))))))”, the Tm was 59.3 °C.

For “CGACGTGCACGATGTGCTG+CAGCACATGGAGCACGTCG ((((((((.(.((((((((+)))))))).).))))))))”, the Tm was determined as 50.5 °C.

In the case of “CGACGTGCTGTATGTGCTG+CAGCACATGATGCACGTCG ((((((((...((((((((+))))))))...))))))))”, the Tm was 51.3 °C.

Consider “CGACGTGCCCTATGTGCTG+CAGCACATATTGCACGTCG ((((((((..(((((((((+)))))))))..))))))))”, for which the Tm was found to be 48.9 °C.

With “CGACGTGCGTCATGTGCTG+CAGCACATTACGCACGTCG ((((((((((.((((((((+)))))))).))))))))))”, the Tm stood at 57.4 °C.

Turning to “CGACGTGCGTAATGTGCTG+CAGCACATCCTGCACGTCG ((((((((...((((((((+))))))))...))))))))”, the melting temperature (Tm) was determined as 49.7 °C.

“CGACGTGCTTGATGTGCTG+CAGCACATGACGCACGTCG ((((((((.(.((((((((+)))))))).).))))))))”: the Tm came out at 46.5 °C.

Regarding “CGACGTGCAATATGTGCTG+CAGCACATCGCGCACGTCG ((((((((...((((((((+))))))))...))))))))”, the Tm is 47.4 °C.

Turning to “CGACGTGCAAGATGTGCTG+CAGCACATCCCGCACGTCG ((((((((..(((((((((+)))))))))..))))))))”, the Tm amounted to 52.9 °C.

In the case of “CGACGTGCTCAATGTGCTG+CAGCACATCTAGCACGTCG (((((((((..((((((((+))))))))..)))))))))”, the midpoint of thermal melting (Tm) stood at 51 °C.

With “CGACGTGCTCTATGTGCTG+CAGCACATCGCGCACGTCG ((((((((.(.((((((((+)))))))).).))))))))”, the Tm turned out to be 48.3 °C.

As to “CGACGTGCTAGATGTGCTG+CAGCACATATTGCACGTCG ((((((((.(.((((((((+)))))))).).))))))))”, the Tm was 52.5 °C.

Take “CGACGTGCAGCATGTGCTG+CAGCACATTCCGCACGTCG ((((((((.(.((((((((+)))))))).).))))))))”: the midpoint of thermal melting (Tm) worked out at 46.4 °C.

Regarding “CGACGTGCGGAATGTGCTG+CAGCACATGGAGCACGTCG ((((((((...((((((((+))))))))...))))))))”, the Tm turned out to be 62.8 °C.

Consider “CGACGTGCCAGATGTGCTG+CAGCACATCGAGCACGTCG ((((((((..(((((((((+)))))))))..))))))))”, for which the Tm came to 56.2 °C.

Take “CGACGTGCGAAATGTGCTG+CAGCACATGAAGCACGTCG ((((((((...((((((((+))))))))...))))))))”: the Tm was found to be 59.3 °C.

In the case of “CGACGTGCCCAATGTGCTG+CAGCACATTCTGCACGTCG ((((((((..(((((((((+)))))))))..))))))))”, the melting temperature (Tm) was determined as 49.9 °C.

On to “CGACGTGCACTATGTGCTG+CAGCACATTCCGCACGTCG ((((((((...((((((((+))))))))...))))))))”, for which the Tm came to 42.2 °C.

Consider “CGACGTGCACCATGTGCTG+CAGCACATGTGGCACGTCG ((((((((..(((((((((+)))))))))..))))))))”, for which the Tm stood at 53.4 °C.

In the case of “CGACGTGCCCCATGTGCTG+CAGCACATTCTGCACGTCG ((((((((...((((((((+))))))))...))))))))”, the Tm came out at 46.9 °C.

Regarding “CGACGTGCCCCATGTGCTG+CAGCACATTTTGCACGTCG ((((((((...((((((((+))))))))...))))))))”, the Tm is 46.6 °C.

For “CGACGTGCCCAATGTGCTG+CAGCACATAACGCACGTCG ((((((((...((((((((+))))))))...))))))))”, the Tm is 47.3 °C.

For the substance “CGACGTGCAGGATGTGCTG+CAGCACATGCGGCACGTCG ((((((((.(.((((((((+)))))))).).))))))))”, the Tm amounted to 55.3 °C.

“CGACGTGCTCGATGTGCTG+CAGCACATGCAGCACGTCG (((((((((..((((((((+))))))))..)))))))))”: the Tm was found to be 52.1 °C.

Take “CGACGTGCAACATGTGCTG+CAGCACATACTGCACGTCG (((((((((..((((((((+))))))))..)))))))))”: the melting temperature (Tm) turned out to be 49.8 °C.

Consider “CGACGTGCCCGATGTGCTG+CAGCACATGTTGCACGTCG ((((((((...((((((((+))))))))...))))))))”, for which the Tm was determined as 48.1 °C.

On to “CGACGTGCGCTATGTGCTG+CAGCACATAGCGCACGTCG (((((((((((((((((((+)))))))))))))))))))”, for which the Tm worked out at 66.4 °C.

“CGACGTGCGACATGTGCTG+CAGCACATGGTGCACGTCG ((((((((..(((((((((+)))))))))..))))))))”: the melting temperature (Tm) amounted to 57.3 °C.

Turning to “CGACGTGCCATATGTGCTG+CAGCACATCACGCACGTCG ((((((((...((((((((+))))))))...))))))))”, the Tm is 47.6 °C.

Turning to “CGACGTGCTTGATGTGCTG+CAGCACATTTGGCACGTCG ((((((((...((((((((+))))))))...))))))))”, the Tm is 50.8 °C.

On to “CGACGTGCAAAATGTGCTG+CAGCACATGAAGCACGTCG ((((((((...((((((((+))))))))...))))))))”, for which the Tm came to 53.7 °C.

Regarding “CGACGTGCTGCATGTGCTG+CAGCACATACCGCACGTCG ((((((((.(.((((((((+)))))))).).))))))))”, the Tm came out at 50.7 °C.

As for “CGACGTGCGGGATGTGCTG+CAGCACATTCAGCACGTCG ((((((((.(.((((((((+)))))))).).))))))))”, the Tm was determined as 56.4 °C.

On to “CGACGTGCTAAATGTGCTG+CAGCACATCCCGCACGTCG ((((((((...((((((((+))))))))...))))))))”, for which the Tm stood at 48.9 °C.

“CGACGTGCACTATGTGCTG+CAGCACATTCAGCACGTCG ((((((((...((((((((+))))))))...))))))))”: the midpoint of thermal melting (Tm) was determined as 43.4 °C.

Consider “CGACGTGCATCATGTGCTG+CAGCACATCTAGCACGTCG ((((((((...((((((((+))))))))...))))))))”, for which the Tm is 47.3 °C.

As to “CGACGTGCGACATGTGCTG+CAGCACATTATGCACGTCG ((((((((...((((((((+))))))))...))))))))”, the Tm amounted to 50.1 °C.

For “CGACGTGCGTGATGTGCTG+CAGCACATGGGGCACGTCG ((((((((...((((((((+))))))))...))))))))”, the midpoint of thermal melting (Tm) stood at 51.2 °C.

On to “CGACGTGCGTGATGTGCTG+CAGCACATAAGGCACGTCG ((((((((.(.((((((((+)))))))).).))))))))”, for which the Tm came to 52.7 °C.

As to “CGACGTGCAGAATGTGCTG+CAGCACATAGGGCACGTCG ((((((((...((((((((+))))))))...))))))))”, the Tm turned out to be 49.2 °C.

“CGACGTGCAAGATGTGCTG+CAGCACATCGTGCACGTCG (((((((((.(((((((((+))))))))).)))))))))”: the Tm was found to be 57.4 °C.

For “CGACGTGCCCGATGTGCTG+CAGCACATTATGCACGTCG ((((((((...((((((((+))))))))...))))))))”, the Tm is 48.4 °C.

Consider “CGACGTGCCGTATGTGCTG+CAGCACATTTGGCACGTCG (((((((((..((((((((+))))))))..)))))))))”, for which the Tm turned out to be 55.2 °C.

In the case of “CGACGTGCACTATGTGCTG+CAGCACATTTAGCACGTCG ((((((((...((((((((+))))))))...))))))))”, the Tm was found to be 42.7 °C.

Regarding “CGACGTGCGCGATGTGCTG+CAGCACATTCCGCACGTCG (((((((((..((((((((+))))))))..)))))))))”, the Tm stood at 54.9 °C.

For “CGACGTGCGTAATGTGCTG+CAGCACATCGGGCACGTCG ((((((((...((((((((+))))))))...))))))))”, the Tm amounted to 49.4 °C.

For the substance “CGACGTGCGCTATGTGCTG+CAGCACATAGAGCACGTCG ((((((((.((((((((((+)))))))))).))))))))”, the melting temperature (Tm) turned out to be 58.7 °C.

With “CGACGTGCCTAATGTGCTG+CAGCACATTAAGCACGTCG ((((((((.((((((((((+)))))))))).))))))))”, the Tm worked out at 53.4 °C.

As to “CGACGTGCGTGATGTGCTG+CAGCACATCCAGCACGTCG ((((((((..(((((((((+)))))))))..))))))))”, the Tm stood at 55.5 °C.

With “CGACGTGCGTGATGTGCTG+CAGCACATTGCGCACGTCG (((((((((..((((((((+))))))))..)))))))))”, the Tm was 58 °C.

Take “CGACGTGCTGGATGTGCTG+CAGCACATCCAGCACGTCG (((((((((((((((((((+)))))))))))))))))))”: the Tm is 65.5 °C.

“CGACGTGCGCTATGTGCTG+CAGCACATGTCGCACGTCG (((((((((..((((((((+))))))))..)))))))))”: the Tm was 54.8 °C.

On to “CGACGTGCTTGATGTGCTG+CAGCACATTATGCACGTCG ((((((((.(.((((((((+)))))))).).))))))))”, for which the melting temperature (Tm) was found to be 51.9 °C.

With “CGACGTGCCTCATGTGCTG+CAGCACATGTGGCACGTCG (((((((((.(((((((((+))))))))).)))))))))”, the melting temperature (Tm) is 59.8 °C.

As to “CGACGTGCGGTATGTGCTG+CAGCACATAGTGCACGTCG ((((((((..(((((((((+)))))))))..))))))))”, the Tm came to 53 °C.

Take “CGACGTGCTCGATGTGCTG+CAGCACATAACGCACGTCG ((((((((...((((((((+))))))))...))))))))”: the Tm stood at 49 °C.

As for “CGACGTGCGGAATGTGCTG+CAGCACATTGAGCACGTCG ((((((((..(((((((((+)))))))))..))))))))”, the Tm was determined as 56.2 °C.

Turning to “CGACGTGCTGTATGTGCTG+CAGCACATTTAGCACGTCG (((((((((..((((((((+))))))))..)))))))))”, the Tm amounted to 51.5 °C.

On to “CGACGTGCATGATGTGCTG+CAGCACATTGCGCACGTCG ((((((((...((((((((+))))))))...))))))))”, for which the Tm came out at 49.1 °C.

As for “CGACGTGCCGCATGTGCTG+CAGCACATCCCGCACGTCG ((((((((.(.((((((((+)))))))).).))))))))”, the Tm is 48.8 °C.

As to “CGACGTGCAGTATGTGCTG+CAGCACATTTAGCACGTCG ((((((((...((((((((+))))))))...))))))))”, the melting temperature (Tm) was 48.6 °C.

Consider “CGACGTGCCCGATGTGCTG+CAGCACATTGAGCACGTCG ((((((((.(.((((((((+)))))))).).))))))))”, for which the Tm stood at 53.6 °C.

The record behind these values is the array DNA melting data of Ke et al..
